Results taken from patent publication US20170066817A1.

Assays:
[1] = biological target: human cellular prion protein (human); assay: cell-based or functional assay
[2] = biological target: GST-PrPc (β1α1) protein (human); assay: Biacore (SPR), ratio of affinities
[3] = biological target: GST-PrPc (β1α1) protein (human); assay: Biacore (SPR), soluble GST-PrPc (β1α1) at several concentrations

B1: anti-PrPc mAb-5 (monoclonal antibody Ab-5) (antibody, V domains shown)
VH: EVQLQQSGPELVKPGASVKMSCKASGYTFTDYYMKWVKQSHGKSLEWIGDINPNNGDTFYNQKFKGKATLTVDKSSNTAYMQLNSLTSEDSAVYYCAKPGRTYWGQGTLVTVSAAKTTAPSVYPLAPVCGGSRP
VL: DIVLTQSPASLAVSLGQRATISYRASKSVSTSGYSYMHWNQQKPGQPPRLLIYLVSNLESGVPARFSGSGSGTDFTLNIHPVEEEDAATYYCQHIRELTRSEGGPSWK
In the case of B1, the Migrated cell number, HCT116 cells (transwell, antibody 10 µg/mL, 24 h) [1] is reported as 192 cells, the Migrated cell number, MDA-MB-231 cells (transwell, antibody 10 µg/mL, 24 h) [1] is reported as 695 cells and the Migrated cell number, SW480 cells (transwell, antibody 10 µg/mL, 24 h) [1] is reported as 111 cells. For the same binder, the fold affinity against 12F10 [2] was 5.38 times, the fold affinity against Ab-3 [2] was 1.87 times and the Kd [3] was 3.05 nM.
